Source: article PMC5407892

Experiments:
[1] = tested on: EhDNAligI full-length (DNA ligase I) (Entamoeba histolytica); assay: fluorescence anisotropy; details: 3' dideoxy-C at the nick that halts ligation; Anisotropy: 50 mM Tris/HCl pH 7.5, 25 mM NaCl, 5 mM DTT, 10 mM MgCl2, 250 ug/mL BSA, 1 mM ATP, 30 C; footprinting: 50 mM Tris/HCl pH 7.5, 6.6 mM MgCl2, 5 mM …
[2] = tested on: EhDNAligI full-length (DNA ligase I);EhPCNA (Entamoeba histolytica;Entamoeba histolytica); assay: fluorescence anisotropy; details: 3' dideoxy-C at the nick that halts ligation; Anisotropy: 50 mM Tris/HCl pH 7.5, 25 mM NaCl, 5 mM DTT, 10 mM MgCl2, 250 ug/mL BSA, 1 mM ATP, 30 C; footprinting: 50 mM Tris/HCl pH 7.5, 6.6 mM MgCl2, 5 mM …
[3] = tested on: EhDNAligI full-length (DNA ligase I);HsPCNA (Entamoeba histolytica;Homo sapiens); assay: fluorescence anisotropy; details: with HsPCNA, 10 mM Mg2+, 1 mM ATP, 3' dideoxy-C at the nick that halts ligation, Anisotropy: 50 mM Tris/HCl pH 7.5, 25 mM NaCl, 5 mM DTT, 10 mM MgCl2, 250 ug/mL BSA, 30 C, footprinting: 50 mM Tris/HCl pH 7.5, 6.6 mM MgCl2, 5 mM …
[4] = tested on: EhDNAligI ΔDBD;EhPCNA (Entamoeba histolytica;Entamoeba histolytica); assay: fluorescence anisotropy; details: 3' dideoxy-C at the nick that halts ligation; Anisotropy: 50 mM Tris/HCl pH 7.5, 25 mM NaCl, 5 mM DTT, 10 mM MgCl2, 250 ug/mL BSA, 1 mM ATP, 30 C; footprinting: 50 mM Tris/HCl pH 7.5, 6.6 mM MgCl2, 5 mM …
[5] = tested on: EhDNAligI ΔPIP (Entamoeba histolytica); assay: fluorescence anisotropy; details: 3' dideoxy-C at the nick that halts ligation; Anisotropy: 50 mM Tris/HCl pH 7.5, 25 mM NaCl, 5 mM DTT, 10 mM MgCl2, 250 ug/mL BSA, 1 mM ATP, 30 C; footprinting: 50 mM Tris/HCl pH 7.5, 6.6 mM MgCl2, 5 mM …
[6] = tested on: EhDNAligI ΔPIP;EhPCNA (Entamoeba histolytica;Entamoeba histolytica); assay: fluorescence anisotropy; details: 3' dideoxy-C at the nick that halts ligation; Anisotropy: 50 mM Tris/HCl pH 7.5, 25 mM NaCl, 5 mM DTT, 10 mM MgCl2, 250 ug/mL BSA, 1 mM ATP, 30 C; footprinting: 50 mM Tris/HCl pH 7.5, 6.6 mM MgCl2, 5 mM …
[7] = biological target: EhDNAligI-Phe11Ala:Phe12Ala (Entamoeba histolytica)
[8] = biological target: Entamoeba histolytica DNA ligase I, full-length (Entamoeba histolytica)
[9] = biological target: EhDNAligI deletion mutant lacking its first 39 amino acids including the PIP box (Entamoeba histolytica)
[10] = biological target: Entamoeba histolytica DNA ligase I, full-length (Entamoeba histolytica); remark: listed apart in the source

3'-FAM nicked dsDNA (anisotropy substrate)
Kd [1]: 72.1 nM
Kd [2]: 6.2 nM
Kd [3]: 11.3 nM
Kd [4]: 95.5 nM
Kd [5]: 82.1 nM
Kd [6]: 10.2 nM

EhPCNA-V127A-I129A (natural protein)
stimulation of nick-sealing activity (time course) by the EhPCNA mutant [7]: < 2.4 fold

EhPCNA-Δ254 (natural protein)
stimulation of nick-sealing activity (time course) by the EhPCNA mutant [7]: < 2.4 fold

Entamoeba histolytica proliferating cell nuclear antigen (natural protein)
affinity of the ligase for 3′-FAM-labeled nicked DNA by fluorescence anisotropy, with against without EhPCNA [8]: 11 fold
catalytic efficiency (k cat/K m) of steady-state ligation, with against without EhPCNA [9]: > 18 fold
catalytic efficiency (k cat/K m) of steady-state ligation, with against without EhPCNA [10]: > 18 fold
stimulation of nick-sealing activity (time course) by wild-type EhPCNA [7]: 9.8 fold
